Positions count from the first letter of the chain named. One block for each binder: values may come before it.
Legend:
Assay in all cases: immunostaining of cells or tissue
[1] = target: plasma membrane-targeted version of rat VGLUT2 (Rattus norvegicus, UniProt Q9JI12, point mutant)
[2] = target: plasma membrane-targeted version of rat VGLUT1 (Rattus norvegicus, UniProt Q62634)
[3] = target: plasma membrane-targeted version of rat VGLUT3 (Rattus norvegicus, UniProt Q7TSF2)
Sequence of plasma membrane-targeted version of rat VGLUT3 (Q7TSF2 whole entry): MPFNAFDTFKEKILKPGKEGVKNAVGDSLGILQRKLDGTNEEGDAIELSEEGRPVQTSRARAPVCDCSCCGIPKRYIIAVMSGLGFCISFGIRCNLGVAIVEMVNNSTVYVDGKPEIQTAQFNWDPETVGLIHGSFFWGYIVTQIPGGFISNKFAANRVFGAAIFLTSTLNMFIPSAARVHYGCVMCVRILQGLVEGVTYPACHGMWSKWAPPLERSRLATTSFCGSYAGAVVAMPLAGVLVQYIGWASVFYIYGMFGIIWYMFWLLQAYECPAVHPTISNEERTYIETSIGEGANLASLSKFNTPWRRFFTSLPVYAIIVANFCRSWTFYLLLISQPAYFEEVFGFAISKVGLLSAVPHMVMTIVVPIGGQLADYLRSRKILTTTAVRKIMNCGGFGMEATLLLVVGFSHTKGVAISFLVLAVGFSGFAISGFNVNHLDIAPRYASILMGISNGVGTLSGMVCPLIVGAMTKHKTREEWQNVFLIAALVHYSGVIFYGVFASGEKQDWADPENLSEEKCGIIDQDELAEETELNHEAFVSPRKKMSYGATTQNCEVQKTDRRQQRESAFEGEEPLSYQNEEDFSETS

Sequence of plasma membrane-targeted version of rat VGLUT1 (Q62634 whole entry): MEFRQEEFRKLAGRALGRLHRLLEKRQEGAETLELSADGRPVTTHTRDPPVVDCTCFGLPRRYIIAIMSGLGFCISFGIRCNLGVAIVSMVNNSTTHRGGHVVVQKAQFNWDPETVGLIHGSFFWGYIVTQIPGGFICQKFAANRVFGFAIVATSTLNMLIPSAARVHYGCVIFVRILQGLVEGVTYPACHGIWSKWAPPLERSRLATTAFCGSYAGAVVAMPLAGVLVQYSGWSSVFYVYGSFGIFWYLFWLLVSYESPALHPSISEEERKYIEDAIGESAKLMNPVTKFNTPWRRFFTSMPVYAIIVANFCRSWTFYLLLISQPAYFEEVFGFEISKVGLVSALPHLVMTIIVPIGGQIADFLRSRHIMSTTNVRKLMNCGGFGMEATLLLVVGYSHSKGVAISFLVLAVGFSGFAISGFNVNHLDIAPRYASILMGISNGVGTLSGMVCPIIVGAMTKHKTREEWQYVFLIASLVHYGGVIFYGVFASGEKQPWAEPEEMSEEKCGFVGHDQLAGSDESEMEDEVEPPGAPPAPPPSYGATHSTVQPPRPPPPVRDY
Sequence of plasma membrane-targeted version of rat VGLUT2 (Q9JI12 whole entry, change not shown): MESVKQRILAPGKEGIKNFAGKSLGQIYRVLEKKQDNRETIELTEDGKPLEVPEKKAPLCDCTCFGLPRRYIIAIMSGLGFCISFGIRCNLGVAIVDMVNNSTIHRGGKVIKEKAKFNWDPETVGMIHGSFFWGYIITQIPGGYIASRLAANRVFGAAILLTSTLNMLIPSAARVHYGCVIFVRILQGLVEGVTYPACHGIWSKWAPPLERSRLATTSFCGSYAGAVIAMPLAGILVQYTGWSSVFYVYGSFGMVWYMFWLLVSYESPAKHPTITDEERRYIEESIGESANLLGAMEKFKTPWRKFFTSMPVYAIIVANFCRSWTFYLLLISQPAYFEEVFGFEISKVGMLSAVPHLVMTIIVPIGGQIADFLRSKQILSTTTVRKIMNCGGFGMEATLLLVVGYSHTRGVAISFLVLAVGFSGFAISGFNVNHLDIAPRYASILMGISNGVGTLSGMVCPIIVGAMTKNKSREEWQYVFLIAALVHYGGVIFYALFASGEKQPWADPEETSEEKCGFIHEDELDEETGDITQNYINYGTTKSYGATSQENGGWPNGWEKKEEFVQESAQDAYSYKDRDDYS

- binding result [1]: binds
- binding result [2]: binds
- binding result [3]: no binding
B1: monoclonal antibody 9C6 (antibody, V domains shown)
VH: EVMLVESGGGLVKPGGSLKISCAASGFTFSWYAMSWVRQTPEKRLEWVATISSAGSYTYYPDSVKGRFTISRDNAKNTLYLQMSSLRSEDTAMYYCSRVPILGRVDYWGQGTTLTVSS
VL: QIVLTQSPAIMSASPGEKVTMTCSASSSVTYMHWYQQKSGTSPKTWIYDSSRLASGVPARFSGSGSGTSYSLTISSMEAEDAATYYCQHWSSNPPIFTFGSGTKLEIK

- binding result [2]: binds
- binding result [3]: no binding
B2: monoclonal antibody 8E11 (antibody, V domains shown)
VH: B1 VH
VL: B1 VL with I10F, H33N, A59P, H89Q
